Test results published in patent publication US20190315821A1, “COMPOSITIONS COMPRISING HEPCIDIN AND METHODS OF USE THEREOF” (La Jolla Pharmaceutical Company, priority 2018, published 2019).
“And” between values parts separate entries of the source, which are not always exact repeats. Equal values may be shown once.

Columns and labels:
[1] = Thiol content assay of hepcidin-25 batches; assay type: physicochemical; conditions: for Average mole thiol/[mole hepcidin]: batches of hepcidin-25 before and after purification, lower quantifiable limit 0.01; for thiol content of sample of FIG. 2: sample used in pH 2.5 / pH 5.6 stability study
Excerpt: In some embodiments, the composition comprises purified hepcidin and is substantially free of thiol (e.g., unreacted, free sulfhydryl-containing cysteines). Thiols can react with the disulfide bridges of hepcidin resulting in disulfide scrambling and potential polymerization of multiple hepcidin molecules to form aggregated hepcidin. Such thiols can come from multiple sources, some of which include thiols left over from synthesis of the hepcidin, incomplete folding of hepcidin and breakage of disulfide bridges within folded hepcidin, improperly folded hepcidin and/or aggregated hepcidin. Thiols may be measured by several methods, which may include a thiol quantification assay kit such as that from Molecular Probes: Thiol and Sulfide Quantification Kit (T-6060). Such a kit uses cysteine as a standard so that thiols are reported as cysteine equivalents. In some such embodiments the thiol content is less than 0.20 mole thiol/mole hepcidin. In some preferred embodiments, the thiol content is less than 0.1 mole thiol/mole hepcidin. In more preferred embodiments, the thiol content is less than 0.05 mole thiol/mole hepcidin. In further preferred embodiments, the thiol content is less than 0.015 mole thiol/mole hepcidin. In the most preferred embodiments, the thiol content is less than 0.01 mole thiol/mole hepcidin.
(§1) In view of the role played by intermolecular disulfide bond formation in aggregate formation, and the contribution of thiol groups to that end, multiple sources of hepcidin-25 were analyzed for thiol using a thiol content assay and evaluated for stability. Commercially available hepcidin was used in these Examples, which while “purified” to contain only hepcidin, contained thiols and aggregates, and thus may be referred to as “unpurified” to distinguish it from the compositions of the invention. […] For the purpose of this experiment the thiol impurity was removed as follows: Thiols were quenched using 1 molar equivalents of […] (NEM). The solution was then purified by tangential flow filtration (TFF) using Millipore Pellicon 2 10 kDa cassettes for aggregate removal and Pall T-Series 1 kDa for ultra-filtration-diafiltration. The starting material was diluted to less than or equal to 0.1 mg/mL prior to processing through the 10 kDa system. The diluent consisted of 15% Acetonitrile/0.05% Trifluoracetic acid (TFA).

[2] = Stability (aggregate formation by SEC) of unpurified and purified hepcidin in 0.9% saline at 40° C.; assay type: physicochemical; conditions: for Stability: aggregate formation of the batch; for aggregation at low pH: pH 2.5, 0.9% saline, over 10 days; for aggregate by SEC: pH 5.6, 0.9% saline
Protocol: Aggregation can be measured by several different methods. In some embodiments, aggregation is measured by size exclusion high-performance liquid chromatography (SEC-HPLC). This method allows for the separation and quantification of hepcidin monomer from any aggregates including dimer, trimer and multimers. In other preferred embodiments, aggregation is measured by an isocratic method performed on an HPLC system comprised of a temperature controlled auto-sampler, a binary or quaternary pump, and an ultraviolet detector. For example, in some such embodiments, the mobile phase consists of 0.05% TFA in 50% acetonitrile and water and human hepcidin-25 (SEQ ID NO: 1) is dissolved in of 0.05% TFA to 1 mg/mL concentration. Five microliters of the solution are injected onto a Zenix-C SEC-80 column of 7.8×300 mm in dimension, 80 Å pore size and 3 μm particle size (Sepax Technologies, Newark, Del. 19711). A flow rate of 1 mL/min is used to elute the analyte from the column and deliver to the UV detector set at 214 nm. The entire run time is 13 min. Empower™ chromatography software or equivalent software is used to integrate each chromatography peak and calculate % peak area at each respective retention time.
as §1
The initial unpurified material and the resulting purified material were formulated in 0.9% saline at either pH 2.5 or pH 5.6 and assessed for stability at 40° C. Samples were taken over 10 days and evaluated by SEC.

[3] = Effect of salt form on aggregate formation; assay type: physicochemical; conditions: for native pH of solution: when preparing solutions of hepcidin, before pH adjustment; for aggregation when maleic acid is present: pH 4.2, 1 mg/mL maleic acid, continued aggregation then slowed
Protocol: The trifluoroacetate, chloride and acetate salts of hepcidin were prepared and all three salt forms were formulated in 0.9% saline at pH 4.2. The hepcidin concentration was 20 mg/mL with a maleic acid concentration of either 0 mg/mL or 1 mg/mL. Samples were filtered using a 0.2 μm syringe filter and aliquoted into glass screw cap amber vials. The samples were assessed for stability at 5° C. and 25° C. Over the course of 47 days the samples were evaluated by visual inspection, pH and SEC.

[4] = Mechanism of aggregate formation: stability studies and DTT reduction, SEC; assay type: physicochemical
Excerpt: Hepcidin contains 8 cysteines, forming 4 disulfide bridges, each with the potential to become unstable under certain conditions. […] Significant work was completed to address this degradation pathway.
Briefly, the effect of potential intermolecular disulfide bonding on aggregation was studied by adding a reducing agent to aggregated material to break all disulfide bonds. Hepcidin-25 with an aggregate content of 35% as measured by SEC was used for this study. An aliquot of this material was treated with 20 mM Dithiothreitol (DTT) and samples were evaluated by SEC.

serum iron = conditions: cited from earlier work
[5] = Effect of pH 4.2 vs pH 4.8 on aggregate formation; assay type: physicochemical; conditions: 9% starting aggregate, thiol removed, 0.9% sodium chloride, 5° C. and 25° C., about 50 days
Protocol: Hepcidin-25, with 9% starting aggregate and purified to remove thiol, was dissolved in 0.9% sodium chloride and adjusted to either pH 4.2 or pH 4.8. Samples were filtered using a 0.2 μm syringe filter and aliquoted into glass screw cap amber vials. Samples were assessed for stability at both 5° C. and 25° C. Samples were taken over about 50 days and evaluated by visual inspection, pH and SEC.

[6] = Initial formulation stability (oxidation) by RP-HPLC; assay type: physicochemical
Protocol: […] Samples were analyzed by reversed-phase high-performance liquid chromatography (RP-HPLC). […] Samples were evaluated over 4.5 months and analyzed by RP-HPLC. Under all conditions, the rate of oxidation observed was slow.

## Vendor 1, Lot 1 purified: hepcidin-25 lot with thiols quenched with NEM and purified by tangential flow filtration
[1]
  Average mole thiol/[mole hepcidin]: <0.01 mole thiol/mole hepcidin
  thiol content of sample of FIG. 2: no detectable thiol
[2]
  Stability: Stable, very slow
[2]; 40° C.
  aggregation at low pH: no aggregation
[2]; after 10 days at 40° C.
  aggregate by SEC: about 38%

## Vendor 1, Lot 1: commercially available hepcidin-25 batch containing thiols and aggregates, referred to as unpurified
[1]
  Average mole thiol/[mole hepcidin]: 0.17 mole thiol/mole hepcidin
  thiol content of sample of FIG. 2: 1.7 mole thiol/mole hepcidin
[2]
  Stability: Unstable, rapid
[2]; 40° C.
  aggregation at low pH: aggregates more slowly
[2]; 40° C., after 24 hours
  aggregate by SEC: > 95%
[2]; within time it took to test the material by SEC
  aggregate by SEC: 38%

## Vendor 1, Lot 2: commercially available hepcidin-25 batch, unpurified
[1]
  Average mole thiol/[mole hepcidin]: >0.2 mole thiol/mole hepcidin
[2]
  Stability: Unstable, rapid

## Vendor 2, Lot 1: commercially available hepcidin-25 batch, unpurified
[1]
  Average mole thiol/[mole hepcidin]: 0.03 mole thiol/mole hepcidin
[2]
  Stability: Unstable, slower

## Vendor 2, Lot 2: commercially available hepcidin-25 batch, unpurified; label printed on two lines of Table 2
[1]
  Average mole thiol/[mole hepcidin]: 0.03 mole thiol/mole hepcidin and 0.02 mole thiol/mole hepcidin
[2]
  Stability: Unstable, slower

## Vendor 3, Lot 1: commercially available hepcidin-25 batch, unpurified
[1]
  Average mole thiol/[mole hepcidin]: 0.03 mole thiol/mole hepcidin
[2]
  Stability: Unstable, slower

## hepcidin acetate [acetate salt form]
[3]; 20 mg/mL, 0.9% saline, pH 4.2, 0 or 1 mg/mL maleic acid, 5° C. and 25° C., 47 days
  relative stability of salt forms: most stable of the three salt forms
[3]
  native pH of solution: about 5

## hepcidin chloride [HCl salt]
[3]; 20 mg/mL
  aggregation when maleic acid is present: initial increase in aggregation
[3]
  native pH of solution: about 2.5

## hepcidin trifluoroacetate [TFA]
[3]; 20 mg/mL
  aggregation when maleic acid is present: initial increase in aggregation

## hepcidin-25
[4]; accelerated (40° C.) and real time (5° C.) stability studies
  main mode of degradation: aggregation
[4]; material with 35% aggregate treated with 20 mM DTT
  aggregation after reduction of disulfide bonds: aggregation is reversed
Serum iron; nonclinical and clinical studies
  safety profile: favorable safety profile
Serum iron; single subcutaneous injection
  duration of iron lowering effects: up to 1 week
[5]
  effect of pH on stability (aggregate formation): pH 4.2 being more stable than pH 4.8
[6]; 40 mg/mL in saline with or without methionine, 37° C. and 45° C., 4.5 months, all conditions
  rate of oxidation: slow
[6]; 40 mg/mL in saline, methionine ten-fold molar excess, 37° C. and 45° C.
  effect of methionine excipient on oxidation: reduced the amount of oxidation even further
[6]; 50, 100 and 150 mg/mL, 5° C. over 4.5 months, RP-HPLC
  primary degradation products observed: mono or di-oxidation of the methionine at position 21
